Results from US20210214460A1 (AstraZeneca / MedImmune, published 2021).
Read-outs that look alike come from different tables or passages of the source.

How the values were obtained:
[1] = biological target: T1, membrane-bound human BCMA (human, UniProt Q02223 1-184); assay: cell-based or functional assay
T1 sequence (looked up): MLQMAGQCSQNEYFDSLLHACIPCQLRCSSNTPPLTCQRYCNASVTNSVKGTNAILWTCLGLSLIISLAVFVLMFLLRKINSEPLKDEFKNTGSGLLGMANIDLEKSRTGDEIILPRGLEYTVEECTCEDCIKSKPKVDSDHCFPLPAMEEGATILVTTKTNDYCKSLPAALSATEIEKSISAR

[2] = biological target: T1, membrane-bound human BCMA; assay: cell-based or functional assay; remark: listed apart in the source
[3] = biological target: T2, soluble BCMA (sBCMA) in conditioned media collected from Ad293 cells expressing human BCMA (human, UniProt Q02223 1-54); assay: cell-based or functional assay
T2 sequence (looked up): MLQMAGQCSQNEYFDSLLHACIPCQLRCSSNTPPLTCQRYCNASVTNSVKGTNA

[4] = biological target: T3, monomeric human sBCMA (GenScript) (human, UniProt Q02223 1-54); assay: SPR (ProteOn XPR36), antibody captured by anti-Fc, sBCMA 100-6.25 nM as analyte
T3 construct: extracellular domain; also called monomeric BCMA; monomeric (soluble) BCMA
T3 sequence (looked up): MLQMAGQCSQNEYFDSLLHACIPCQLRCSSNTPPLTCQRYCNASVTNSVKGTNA
Description: The binding of 15B2GL monoclonal antibody and optimized clones I09, L15, P10, N22, and M02 (described in Example 1) was assessed using monomeric human sBCMA (GenScript, Piscataway, N.J.) using a ProteOn™ XPR36 instrument (Bio-Rad, Hercules, Calif.). The binding of J6M0 also was assessed for comparison. Standard amine coupling was used to immobilize 25 μg/ml anti-Fc polyclonal antibody (Jackson ImmunoResearch, West Grove, Pa.) prepared in 10 mM sodium acetate buffer (pH 4.5) to the surface of a ProteOn™ GLC biosensor chip (Bio-Rad, Hercules, Calif.) pre-activated with 20 mM EDAC (1-ethyl-3-(3-dimethylaminopropyl)carbodiimide hydrochloride) and 5 mM Sulfo-NHS (N-hydroxysulfosuccinimide) at a density of ˜200-600 resonance units (RU). 15B2GL, I09, L15, P10, N22, M02, and J6M0 were subsequently injected at a concentration of 1 μg/ml for capture by the immobilized anti-Fc polyclonal antibody. The sensorgram was recorded by flowing two-fold serial dilutions of sBCMA prepared in PBS (pH 7.4) with 0.005% (v/v) Tween®-20, ranging from 100-6.25 nM, over the captured surface for 150 seconds at 75 μL/minute with dissociation time of 600 seconds. ProteOn™ data analysis software was used to analyze the data.

[5] = biological target: T1, membrane-bound human BCMA; assay: flow cytometry on Ad293 cells expressing human BCMA, printed as apparent affinity
Description: (§1) Binding of 15B2GL, I09, L15, and J6M0 to membrane-bound human BCMA was evaluated using flow cytometry in multiple myeloma and plasma cell leukemia cell lines that endogenously express BCMA (NCI-H929 and MM.1S, respectively). Binding of 15B2GL, 109, L15 to membrane-bound human BCMA was also evaluated in Ad293 cells expressing human BCMA. Binding assays were performed by incubating the anti-BCMA antibodies with 200,000 cells for 30 minutes at 4° C. followed by two washes with PBS+2% FBS (FACS Buffer). A range of antibody concentrations were evaluated using a 12-point, 3-fold dilution series. Cells were then incubated with 5 ug/mL goat-anti human IgG-AF647 secondary antibodies (Thermo Fisher Scientific, Waltham, Mass.) at 4° C., followed by two washes in PBS+2% FBS. Cells were resuspended in 200 uL PBS+2% FBS+DAPI.
(§2) Fluorescence of live, single cells was measured using a BD Biosciences LSRII cytometer and BD FACSDiva™ software (BD Biosciences, San Jose, Calif.). Data were analyzed using FlowJo™ software (FlowJo, LLC, Ashland, Oreg.). Mean fluorescence intensity values were used to determine percentage bound and EC50 was determined using Prism™ software (GraphPad Software Inc, La Jolla, Calif.).

[6] = biological target: T1, membrane-bound human BCMA; assay: flow cytometry on NCI-H929 cells (endogenous BCMA), printed as apparent affinity
Description: as §1, §2

[7] = biological target: T1, membrane-bound human BCMA; assay: flow cytometry on MM.1S cells (endogenous BCMA), printed as apparent affinity
Description: as §1, §2

[8] = biological target: T1, membrane-bound human BCMA; assay: cell-based or functional assay; remark: listed apart in the source
[9] = biological target: soluble BCMA (sBCMA) in conditioned media collected from Ad293 cells expressing human BCMA (human) (UniProt Q02223); assay: cell-based or functional assay

B1: 15B2GL-SG3249 antibody-drug conjugate (antibody, V domains shown)
VH: EVQLVESGGGLVKPGGSLRLSCAASGFTFRSYSMNWVRQAPGKGLEWVSSISGSSNYIYYADSVKGRFTISRDNAKNSLYLQMNSLRAEDTAVYYCARGGNYYVEYFQYWGQGTLVTVSS
VL: EIVLTQSPGTLSLSPGERATLSCRASQYISSNYLAWYQQKPGQAPRLLIYGASNRATGIPDRFSGSGSGTDFTLTISRLEPEDFAVYYCQQYGSSPITFGQGTKLEIK
modifications: PBD payload SG3249 conjugated site-specifically; residue not stated; DAR 1.82
IC50 (ng/mL), in vitro cytotoxicity (CellTiter-Glo, 96 h), EJM cells [1]: 153 ng/mL
IC50 (ng/mL), in vitro cytotoxicity (CellTiter-Glo, 96 h), JJN-3 cells [1]: 36.3 ng/mL
IC50 (ng/mL), in vitro cytotoxicity (CellTiter-Glo, 96 h), L-363 cells [1]: 31.4 ng/mL
IC50 (ng/mL), in vitro cytotoxicity (CellTiter-Glo, 96 h), MM.1R cells [1]: 8.64 ng/mL
IC50 (ng/mL), in vitro cytotoxicity (CellTiter-Glo, 96 h), MM.1S cells [1]: 26.8 ng/mL
IC50 (ng/mL), in vitro cytotoxicity (CellTiter-Glo, 96 h), NCI-H929 cells [1]: 5.99 ng/mL
IC50 (ng/mL), in vitro cytotoxicity (CellTiter-Glo, 96 h), OPM-2 cells [1]: 201 ng/mL
IC50 (ng/mL), in vitro cytotoxicity (CellTiter-Glo, 96 h), U266B1 cells [1]: 39.7 ng/mL
IC50 (ng/mL) of killing of MM.1S cells with 0 ng/mL sBCMA [2]: 14.5 ng/mL
IC50 (ng/mL) of killing of MM.1S cells with 75 ng/mL sBCMA [2]: 16.1 ng/mL
IC50 (ng/mL) of killing of MM.1S cells with 270 ng/mL sBCMA [2]: 22.9 ng/mL
IC50 (ng/mL) of killing of MM.1S cells with 720 ng/mL sBCMA [2]: 29.1 ng/mL
Fold loss of potency, killing of MM.1S cells with 0 ng/mL sBCMA (reference) [3]: 1 fold
Fold loss of potency, killing of MM.1S cells with 75 ng/mL sBCMA [3]: 1.11 fold
Fold loss of potency, killing of MM.1S cells with 270 ng/mL sBCMA [3]: 1.58 fold
Fold loss of potency, killing of MM.1S cells with 720 ng/mL sBCMA [3]: 2.01 fold

B2: I09-SG3249 antibody-drug conjugate (antibody, V domains shown)
VH: EVQLVESGGGLVKPGGSLRLSCAASGFTFSSYSMNWVRQAPGKGLEWVSSISGSSNYIYYADSVKGRFTISRDNAKNSLYLQMNSLRAEDTAVYYCARGGNYFVEYFQQWGQGTLVTVSS
VL: EIVLTQSPGTLSLSPGERATLSCRASQYISSNYLAWYQQKPGQAPRLLIYGASNRATGIPDRFSGSGSGTDFTLTISRLEPEDFAVYYCQQYSSDPITFGQGTKLEIK
modifications: PBD payload SG3249 conjugated site-specifically; residue not stated; DAR 1.82
IC50 (ng/mL) of killing of MM.1S cells with 0 ng/mL sBCMA [2]: 2.81 ng/mL
IC50 (ng/mL) of killing of MM.1S cells with 75 ng/mL sBCMA [2]: 3.79 ng/mL
IC50 (ng/mL) of killing of MM.1S cells with 270 ng/mL sBCMA [2]: 5.55 ng/mL
IC50 (ng/mL) of killing of MM.1S cells with 720 ng/mL sBCMA [2]: 16.2 ng/mL
Fold loss of potency, killing of MM.1S cells with 0 ng/mL sBCMA (reference) [3]: 1 fold
Fold loss of potency, killing of MM.1S cells with 75 ng/mL sBCMA [3]: 1.35 fold
Fold loss of potency, killing of MM.1S cells with 270 ng/mL sBCMA [3]: 1.98 fold
Fold loss of potency, killing of MM.1S cells with 720 ng/mL sBCMA [3]: 5.75 fold

B3: M02 (lead optimized clone of 15B2GL) (antibody, V domains shown)
VH: EVQLVESGGGLVKPGGSLRLSCAASGFTFSSYSMNWVRQAPGKGLEWVSSISGQSNYIYYADSVKGRFTISRDNAKNSLYLQMNSLRAEDTAVYYCARGGNYYVEYFQYWGQGTLVTVSS
VL: EIVLTQSPGTLSLSPGERATLSCRASQYISSNNLAWYQQKPGQAPRLLIYGASNRATGIPDRFSGSGSGTDFTLTISRLEPEDFAVYYCQQYSSDPITFGQGTKLEIK
notes: Cloned into an IgG mammalian expression vector ("Maia") designed for ADC conjugation
Kd [4]: 9.9 nM

B4: P10 (lead optimized clone of 15B2GL) (antibody, V domains shown)
VH: EVQLVESGGGLVKPGGSLRLSCAASGFTFRSYSMNWVRQAPGKGLEWVSSISGQSNYIYYADSVKGRFTISRDNAKNSLYLQMNSLRAEDTAVYYCARGGNYYVEYFQYWGQGTLVTVSS
VL: EIVLTQSPGTLSLSPGERATLSCRASQYISSNYLAWYQQKPGQAPRLLIYGASNRATGIPDRFSGSGSGTDFTLTISRLEPEDFAVYYCQQYTDSPITFGQGTKLEIK
notes: as for B3
Kd [4]: 5.3 nM

B5: I09 (lead optimized clone of 15B2GL) (antibody, V domains shown)
VH: EVQLVESGGGLVKPGGSLRLSCAASGFTFSSYSMNWVRQAPGKGLEWVSSISGSSNYIYYADSVKGRFTISRDNAKNSLYLQMNSLRAEDTAVYYCARGGNYFVEYFQQWGQGTLVTVSS
VL: EIVLTQSPGTLSLSPGERATLSCRASQYISSNYLAWYQQKPGQAPRLLIYGASNRATGIPDRFSGSGSGTDFTLTISRLEPEDFAVYYCQQYSSDPITFGQGTKLEIK
notes: Cloned into an IgG mammalian expression vector ("Maia") designed for ADC conjugation; also called 109 [sic]
EC50 [5]: 5.3 nM
EC50 [6]: 5.4 nM
EC50 [7]: 4.8 nM
Kd [4]: 9.8 nM

B6: N22 (lead optimized clone of 15B2GL) (antibody, V domains shown)
VH: EVQLVESGGGLVKPGGSLRLSCAASGFTFSSYSMNWVRQAPGKGLEWVSSISGSSNYIYYADSVKGRFTISRDNAKNSLYLQMNSLRAEDTAVYYCARGGNYFVEYFQYWGQGTLVTVSS
VL: EIVLTQSPGTLSLSPGERATLSCRASQYISSNYLAWYQQKPGQAPRLLIYGASNRATGIPDRFSGSGSGTDFTLTISRLEPEDFAVYYCQQYSSSPITFGQGTKLEIK
notes: as for B3
Kd [4]: 16 nM

B7: J6M0-SG3249 antibody-drug conjugate (antibody, INN chains, looked up, V domains shown)
VH: QVQLVQSGAEVKKPGSSVKVSCKASGGTFSNYWMHWVRQAPGQGLEWMGATYRGHSDTYYNQKFKGRVTITADKSTSTAYMELSSLRSEDTAVYYCARGAIYDGYDVLDNWGQGTLVTVSS
VL: DIQMTQSPSSLSASVGDRVTITCSASQDISNYLNWYQQKPGKAPKLLIYYTSNLHSGVPSRFSGSGSGTDFTLTISSLQPEDFATYYCQQYRKLPWTFGQGTKLEIK
modifications: SG3249 (tesirine) drug payload
IC50 (ng/mL) of killing of MM.1S cells with 0 ng/mL sBCMA [8]: 4.82 ng/mL
IC50 (ng/mL) of killing of MM.1S cells with 75 ng/mL sBCMA [8]: 12.8 ng/mL
IC50 (ng/mL) of killing of MM.1S cells with 270 ng/mL sBCMA [8]: 32.3 ng/mL
IC50 (ng/mL) of killing of MM.1S cells with 720 ng/mL sBCMA [8]: 92.9 ng/mL
Fold loss of potency, killing of MM.1S cells with 0 ng/mL sBCMA (reference) [9]: 1 fold
Fold loss of potency, killing of MM.1S cells with 75 ng/mL sBCMA [9]: 2.66 fold
Fold loss of potency, killing of MM.1S cells with 270 ng/mL sBCMA [9]: 6.7 fold
Fold loss of potency, killing of MM.1S cells with 720 ng/mL sBCMA [9]: 19.3 fold

B8: J6M0-mc-MMAF antibody-drug conjugate (antibody, INN chains, looked up, V domains shown)
VH: QVQLVQSGAEVKKPGSSVKVSCKASGGTFSNYWMHWVRQAPGQGLEWMGATYRGHSDTYYNQKFKGRVTITADKSTSTAYMELSSLRSEDTAVYYCARGAIYDGYDVLDNWGQGTLVTVSS
VL: DIQMTQSPSSLSASVGDRVTITCSASQDISNYLNWYQQKPGKAPKLLIYYTSNLHSGVPSRFSGSGSGTDFTLTISSLQPEDFATYYCQQYRKLPWTFGQGTKLEIK
modifications: mc-MMAF drug payload
IC50 (ng/mL) of killing of MM.1S cells with 0 ng/mL sBCMA [8]: 29.3 ng/mL
IC50 (ng/mL) of killing of MM.1S cells with 75 ng/mL sBCMA [8]: 55.5 ng/mL
IC50 (ng/mL) of killing of MM.1S cells with 270 ng/mL sBCMA [8]: 160 ng/mL
IC50 (ng/mL) of killing of MM.1S cells with 720 ng/mL sBCMA [8]: 1460 ng/mL
Fold loss of potency, killing of MM.1S cells with 0 ng/mL sBCMA (reference) [9]: 1 fold
Fold loss of potency, killing of MM.1S cells with 75 ng/mL sBCMA [9]: 1.9 fold
Fold loss of potency, killing of MM.1S cells with 270 ng/mL sBCMA [9]: 5.45 fold
Fold loss of potency, killing of MM.1S cells with 720 ng/mL sBCMA [9]: 49.8 fold

B9: anti-BCMA antibody J6M0 (antibody, V domains shown)
VH: QVQLVQSGAEVKKPGSSVKVSCKASGGTFSNYWMHWVRQAPGQGLEWMGATYRGHSDTYYNQKFKGRVTITADKSTSTAYMELSSLRSEDTAVYYCARGAIYDGYDVLDNWGQGTLVTVSS
VL: DIQMTQSPSSLSASVGDRVTITCSASQDISNYLNWYQQKPGKAPKLLIYYTSNLHSGVPSRFSGSGSGTDFTLTISSLQPEDFATYYCQQYRKLPWTFGQGTKLEIK
EC50 [6]: 6.02 nM
EC50 [7]: 6.65 nM
Kd [4]: 1 nM
